The values below come from the supplement of paper PMC11246515.

This data set is described as follows: total protein half-life in vivo (active degradation + dilution); higher = more stable protein.
Where [1] appears, read: E. coli NCM3722 delta-clpP delta-lon delta-hslV, growth: N-lim chemostat, doubling time 6 h.
Setting [2] is: E. coli NCM3722 delta-clpP, growth: N-lim chemostat, doubling time 6 h.
[3] abbreviates: E. coli NCM3722 delta-hslV, growth: N-lim chemostat, doubling time 6 h.
The mark [4] stands for this setting: E. coli NCM3722 delta-lon, growth: N-lim chemostat, doubling time 6 h.
The mark [5] stands for this setting: E. coli NCM3722 delta-smpB, growth: N-lim chemostat, doubling time 6 h.
The mark [6] stands for this setting: wild type E. coli NCM3722, growth: C-lim chemostat, doubling time 3 h.
The mark [7] stands for this setting: wild type E. coli NCM3722, growth: C-lim chemostat, doubling time 6 h.
Setting [8] is: wild type E. coli NCM3722, growth: C-lim chemostat, doubling time 12 h.
Where [9] appears, read: wild type E. coli NCM3722, growth: N-lim chemostat, doubling time 6 h.
Where [10] appears, read: wild type E. coli NCM3722, growth: N-lim chemostat, doubling time 12 h.
Where [11] appears, read: wild type E. coli NCM3722, growth: P-lim chemostat, doubling time 6 h.
Where [12] appears, read: wild type E. coli NCM3722, growth: P-lim chemostat, doubling time 12 h.

± gives the standard deviation of the averaged measurements.

On to “MRLIITFLMAWCLSWGAYAATAPDSKQITQELEQAKAAKPAQPEVVEALQSALNALEERKGSLERIKQYQQVIDNYPKLSATLRAQLNNMRDEPRSVSPGMSTDALNQEILQVSSQLLDKSRQAQQEQERAREIADSLNQLPQQQTDARRQLNEIERRLGTLTGNTPLNQAQNFALQSDSARLKALVDELELAQLSANNRQELARLRSELAEKESQQLDAYLQALRNQLNSQRQLEAERALESTELLAENSADLPKDIVAQFKINRELSAALNQQAQRMDLVASQQRQAASQTLQVRQALNTLREQSQWLGSSNLLGEALRAQVARLPEMPKPQQLDTEMAQLRVQRLRYEDLLNKQPLLRQIHQADGQPLTAEQNRILEAQLRTQRELLNSLLQGGDTLLLELTKLKVSNGQLEDALKEVNEATHRYLFWTSDVRPMTIAWPLEIAQDLRRLISLDTFSQLGKASVMMLTSKETILPLFGALILVGCSIYSRRYFTRFLERSAAKVGKVTQDHFWLTLRTLFWSILVASPLPVLWMTLGYGLREAWPYPLAVAIGDGVTATVPLLWVVMICATFARPNGLFIAHFGWPRERVSRGMRYYLMSIGLIVPLIMALMMFDNLDDREFSGSLGRLCFILICGALAVVTLSLKKAGIPLYLNKEGSGDNITNHMLWNMMIGAPLVAILASAVGYLATAQALLARLETSVAIWFLLLVVYHVIRRWMLIQRRRLAFDRAKHRRAEMLAQRARGEEEAHHHSSPEGAIEVDESEVDLDAISAQSLRLVRSILMLIALLSVIVLWSEIHSAFGFLENISLWDVTSTVQGVESLEPITLGAVLIAILVFIITTQLVRNLPALLELAILQHLDLTPGTGYAITTITKYLLMLIGGLVGFSMIGIEWSKLQWLVAALGVGLGFGLQEIFANFISGLIILFEKPIRIGDTVTIRDLTGSVTKINTRATTISDWDRKEIIVPNKAFITEQFINWSLSDSVTRVVLTIPAPADANSEEVTEILLTAARRCSLVIDNPAPEVFLVDLQQGIQIFELRIYAAEMGHRMPLRHEIHQLILAGFHAHGIDMPFPPFQMRLESLNGKQTGRTLTSAGKGRQAGSL”, for which the “total protein half-life in vivo” value stood at 6.45 ± 0.14 h under setting [1]; 6.87 ± 1.2 h under setting [2]; 6.3 ± 0.62 h under setting [3]; 6.27 ± 0.29 h under setting [4]; 5.67 ± 0.52 h under setting [5]; 3.35 ± 0.12 h under setting [6]. For the same sequence, the “total protein half-life in vivo” value came out at 6.73 ± 0.79 h under setting [7]; 13.1 ± 1.4 h under setting [8]; 6.49 ± 0.46 h under setting [9]; 13.3 ± 2.1 h under setting [10]; 5.95 ± 0.7 h under setting [11]; 12.8 ± 0.24 h under setting [12].

With “MSTSDDIHNTTATGKCPFHQGGHDQSAGAGTTTRDWWPNQLRVDLLNQHSNRSNPLGEDFDYRKEFSKLDYYGLKKDLKALLTESQPWWPADWGSYAGLFIRMAWHGAGTYRSIDGRGGAGRGQQRFAPLNSWPDNVSLDKARRLLWPIKQKYGQKISWADLFILAGNVALENSGFRTFGFGAGREDVWEPDLDVNWGDEKAWLTHRHPEALAKAPLGATEMGLIYVNPEGPDHSGEPLSAAAAIRATFGNMGMNDEETVALIAGGHTLGKTHGAGPTSNVGPDPEAAPIEEQGLGWASTYGSGVGADAITSGLEVVWTQTPTQWSNYFFENLFKYEWVQTRSPAGAIQFEAVDAPEIIPDPFDPSKKRKPTMLVTDLTLRFDPEFEKISRRFLNDPQAFNEAFARAWFKLTHRDMGPKSRYIGPEVPKEDLIWQDPLPQPIYNPTEQDIIDLKFAIADSGLSVSELVSVAWASASTFRGGDKRGGANGARLALMPQRDWDVNAAAVRALPVLEKIQKESGKASLADIIVLAGVVGVEKAASAAGLSIHVPFAPGRVDARQDQTDIEMFELLEPIADGFRNYRARLDVSTTESLLIDKAQQLTLTAPEMTALVGGMRVLGANFDGSKNGVFTDRVGVLSNDFFVNLLDMRYEWKATDESKELFEGRDRETGEVKFTASRADLVFGSNSVLRAVAEVYASSDAHEKFVKDFVAAWVKVMNLDRFDLL”, the “total protein half-life in vivo” value is, setting by setting: under setting [1], 4.4 ± 0.59 h; under setting [2], 4.3 ± 0.3 h; under setting [3], 3.14 ± 0.31 h; under setting [4], 3.31 ± 0.44 h; under setting [5], 3.68 ± 0.21 h; under setting [6], 3.116 ± 0.024 h. The “total protein half-life in vivo” value was 5.85 ± 0.14 h under setting [7]; 11.8 ± 0.71 h under setting [8]; 3.11 ± 0.44 h under setting [9]; 3.44 ± 0.15 h under setting [10]; 5.34 ± 0.14 h under setting [11]; 8.87 ± 0.34 h under setting [12].

Turning to “METRREERIGQLLQELKRSDKLHLKDAAALLGVSEMTIRRDLNNHSAPVVLLGGYIVLEPRSASHYLLSDQKSRLVEEKRRAAKLAATLVEPDQTLFFDCGTTTPWIIEAIDNEIPFTAVCYSLNTFLALKEKPHCRAFLCGGEFHASNAIFKPIDFQQTLNNFCPDIAFYSAAGVHVSKGATCFNLEELPVKHWAMSMAQKHVLVVDHSKFGKVRPARMGDLKRFDIVVSDCCPEDEYVKYAQTQRIKLMY [P0ACK5]”, the “total protein half-life in vivo” value was determined as 6.81 ± 0.62 h under setting [1]; 6.08 ± 0.73 h under setting [2]; 6.59 ± 0.9 h under setting [3]; 6.9 ± 1.5 h under setting [4]; 5.02 ± 0.12 h under setting [5]; 2.74 h under setting [6]. The “total protein half-life in vivo” value is, setting by setting: under setting [7], 6.23 ± 0.15 h; under setting [8], 9.99 ± 0.58 h; under setting [9], 5.81 ± 0.078 h; under setting [10], 10.57 ± 0.023 h; under setting [11], 5.99 ± 0.49 h.

“MTPLLELKDIRRSYPAGDEQVEVLKGISLDIYAGEMVAIVGASGSGKSTLMNILGCLDKATSGTYRVAGQDVATLDADALAQLRREHFGFIFQRYHLLSHLTAEQNVEVPAVYAGLERKQRLLRAQELLQRLGLEDRTEYYPAQLSGGQQQRVSIARALMNGGQVILADEPTGALDSHSGEEVMAILHQLRDRGHTVIIVTHDPQVAAQAERVIEIRDGEIVRNPPAIEKVNVTGGTEPVVNTVSGWRQFVSGFNEALTMAWRALAANKMRTLLTMLGIIIGIASVVSIVVVGDAAKQMVLADIRSIGTNTIDVYPGKDFGDDDPQYQQALKYDDLIAIQKQPWVASATPAVSQNLRLRYNNVDVAASANGVSGDYFNVYGMTFSEGNTFNQEQLNGRAQVVVLDSNTRRQLFPHKADVVGEVILVGNMPARVIGVAEEKQSMFGSSKVLRVWLPYSTMSGRVMGQSWLNSITVRVKEGFDSAEAEQQLTRLLSLRHGKKDFFTWNMDGVLKTVEKTTRTLQLFLTLVAVISLVVGGIGVMNIMLVSVTERTREIGIRMAVGARASDVLQQFLIEAVLVCLVGGALGITLSLLIAFTLQLFLPGWEIGFSPLALLLAFLCSTVTGILFGWLPARNAARLDPVDALARE”: the “total protein half-life in vivo” value was 6.72 ± 0.55 h under setting [1]; 6.57 ± 0.25 h under setting [2]; 6.77 ± 0.99 h under setting [3]; 6.57 ± 1.3 h under setting [4]; 5.95 ± 0.35 h under setting [5]; 3.15 ± 0.084 h under setting [6]. Moreover, the “total protein half-life in vivo” value reads like this: under setting [7], 5.92 ± 0.28 h; under setting [8], 12.4 ± 0.29 h; under setting [9], 6.2 ± 0.35 h; under setting [10], 12.6 ± 0.13 h; under setting [11], 6.45 ± 0.26 h; under setting [12], 11.9 ± 0.64 h.

“MRIGHGFDVHAFGGEGPIIIGGVRIPYEKGLLAHSDGDVALHALTDALLGAAALGDIGKLFPDTDPAFKGADSRELLREAWRRIQAKGYTLGNVDVTIIAQAPKMLPHIPQMRVFIAEDLGCHMDDVNVKATTTEKLGFTGRGEGIACEAVALLIKATK”: the “total protein half-life in vivo” value reads like this: under setting [1], 5.75 ± 0.23 h; under setting [2], 4.63 ± 0.57 h; under setting [3], 4.88 ± 0.23 h; under setting [4], 5 ± 0.85 h; under setting [5], 4.88 ± 0.38 h; under setting [6], 2.872 ± 0.01 h. In addition, the “total protein half-life in vivo” value reads like this: under setting [7], 6.85 ± 1.3 h; under setting [8], 10.7 h; under setting [9], 4.9 ± 0.24 h; under setting [10], 8.67 ± 0.53 h; under setting [11], 5.806 ± 0.032 h; under setting [12], 12.9 ± 0.45 h.
